Measured values as given in patent publication US20080187548A1 (LUDWIG INSTITUTE FOR CANCER RESEARCH, published 2008).

Legend:
Test in all cases: cell-based or functional assay
HLA-DRB1*0101 = HLA-DRB1*0101 (human)
HLA-DRB1*0401 = HLA-DRB1*0401 (human)
HLA-DRB1*0301 = HLA-DRB1*0301 (human)
HLA-DRB1*0701 = HLA-DRB1*0701 (human)

B1: NY-ESO-1 peptide, amino acids 134-148 (TIRLTAADHRQLQLS; SEQ ID NO: 2) (peptide)
peptide: TIRLTAADHRQLQLS
For B1, the “Responding patients (%)” value (HLA-DRB1*0101) was 28.6%, the “Responding patients (n = 38)” value (HLA-DRB1*0101) was 2 patients and the “Responding patients (%)” value (HLA-DRB1*0401) was 28.6%. For the same binder, the “Responding patients (n = 38)” value (HLA-DRB1*0401) was 2 patients, the “Responding patients (%)” value (HLA-DRB1*0301) was 10% and the “Responding patients (n = 38)” value (HLA-DRB1*0301) was 1 patients. The “Responding patients (%)” value (HLA-DRB1*0701) was 14.3% and the “Responding patients (n = 38)” value (HLA-DRB1*0701) was 1 patients.
